Experimental findings from US20210284749A1 (ABL BIO, published 2021) are described below.

Assay [1] has as its target T1, rat BCMA (1-49) fused to the Fc region of human IgG1 (rat; human).
T1 construct: Sino Biological Inc. 80156-R01H; also called 80156-R01H; not shown: Fc region of human IgG1
T1 chain: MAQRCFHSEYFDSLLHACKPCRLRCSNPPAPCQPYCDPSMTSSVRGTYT
The assay is described as follows: ELISA on 100 ng coated rat BCMA, antibody titrated, anti-human Fab HRP, absorbance 450 nm. The protocol: (§1) 100 ng of human, monkey, mouse, and rat BCMA antigens prepared in Example 1.1 were coated on the bottom of the plate, and then coated with 3% BSA to block nonspecific binding. Using the selected anti-BCMA IgG antibodies as primary antibodies, and the anti-human Fab HRP (1:20000 dilution) as a secondary antibody, ELISA assay was performed as described in Example 1.3.
(§2) Absorbancies at 450 nm measured with a microplate reader are shown in FIG. 3, and half maximal effective concentrations (EC₅₀) (nM) are shown in Table 9.
(In general: ELISA stands for enzyme-linked immunosorbent assay.)

For assay [2], the target named is T2, recombinant human BCMA (ELISA antigen, construct not specified) (human, UniProt Q02223 1-54).
T2 construct: Fc 1-51; Fc/His 1-51; Fc 4-48) was coated in these ELISAs; also called recombinant BCMA; recombinant protein
T2 sequence: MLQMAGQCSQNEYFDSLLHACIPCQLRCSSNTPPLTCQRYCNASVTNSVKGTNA
Briefly: ELISA on 100 ng coated human BCMA, antibody titrated, anti-human Fab HRP, absorbance 450 nm. The protocol:
as §1, §2

For assay [3], the target named is T3, human BCMA expressed on cell surface (H929, OPM-2, CHOK1-hBCMA cells) (human, UniProt Q02223 1-184).
T3 construct: also called cell-surface BCMA; BCMA on cell surface
T3 sequence: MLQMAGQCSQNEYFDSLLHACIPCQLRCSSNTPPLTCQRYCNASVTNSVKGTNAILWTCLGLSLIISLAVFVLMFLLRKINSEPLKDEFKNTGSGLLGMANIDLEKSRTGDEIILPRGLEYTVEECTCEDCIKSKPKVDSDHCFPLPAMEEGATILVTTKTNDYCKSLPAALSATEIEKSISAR
The assay is described as follows: FACS on OPM-2 cells, 10 µg/ml antibody, anti-human Fc-FITC; open histogram shifted right of the filled control. The method, then:
(§3) Multiple myeloma cancer cells H929 (ATCC, CRL9068™) and OPM-2 cell line (DSMZ, ACC 50), which are known to express BCMA, were prepared, and human BCMA-overexpressed CHOK1-hBCMA cell line (constructed by ABIBio) were prepared.
(§4) 10 μg/ml of the seven IgG antibodies (B58, 5A6, 5D5, 5B5, 1H, 2G, and 5G) purified in Example 1.4 was added to the prepared cells, incubated at 4° C. for 1 hour, and then washed two times with a PBS buffer solution. The anti-human Fc-FITC was diluted in 1:400, incubated at 4° C. for 1 hour, and then washed with a PBS buffer solution. These processes were repeated. In FIGS. 2A and 2B, MFI indicates mean fluorescence intensity.

The target in assay [4] is T4, monkey (Rhesus) BCMA (1-53) fused to the Fc region of human IgG1 (monkey (Rhesus); human, UniProt Q02223 1-54).
T4 construct: Sino Biological Inc. 90103-C02H; also called monkey BCMA; Monkey BCMA (1-53); not shown: Fc region of human IgG1
The assay is described as follows: ELISA on 100 ng coated rhesus BCMA, antibody titrated, anti-human Fab HRP, absorbance 450 nm. The protocol: as §1, §2

In assay [5] the target is T4, monkey (Rhesus) BCMA (1-53) fused to …. Briefly: BLI (Octet), monkey BCMA. For orientation: BLI is a label-free optical method that tracks binding on a fibre tip over time.
The target in assay [6] is T2, recombinant human BCMA (ELISA antigen, …). The assay is described as follows: ELISA on coated recombinant human BCMA, antibody titrated, HRP anti-Fab detection, absorbance 450 nm. The method, then: Specific binding abilities of the anti-BCMA IgG antibodies isolated in Example 1.4 to recombinant BCMA protein were analyzed by ELISA.
Using recombinant human BCMA or monkey BCMA as an antigen, and HRP-conjugated Fab polychronal antibody reagent (Pierce, 31414) as a secondary antibody, ELISA was performed as described in Example 1.3.

Assay [7] concerns the target T3, human BCMA expressed on cell surface …. Briefly: FACS on H929 cells, 10 µg/ml antibody, anti-human Fc-FITC; open histogram shifted right of the filled control. The method, then:
as §3, §4

Assay [8] addresses T5, mouse BCMA (1-49) fused to the Fc region of human IgG1 (mouse; human, UniProt O88472 1-49).
T5 construct: Sino Biological Inc. 50076-M01H; also called 50076-M01H; not shown: Fc region of human IgG1
T5 chain: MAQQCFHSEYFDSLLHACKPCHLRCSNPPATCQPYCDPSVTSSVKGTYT
The assay is described as follows: ELISA on 100 ng coated mouse BCMA, antibody titrated, anti-human Fab HRP, absorbance 450 nm. The method, then:
as §1, §2

Assay [9] concerns the target T2, recombinant human BCMA (ELISA antigen, …). Briefly: ELISA, 100 ng coated antigen. The method, then:
as §1, §2

Assay [10] addresses T1, rat BCMA (1-49) fused to the Fc region …. The assay is described as follows: ELISA, 100 ng coated antigen. The protocol:
as §1, §2

The target in assay [11] is T4, monkey (Rhesus) BCMA (1-53) fused to …. Briefly: ELISA, 100 ng coated antigen. The protocol: as §1, §2
In assay [12] the target is T5, mouse BCMA (1-49) fused to the Fc …. Briefly: ELISA, 100 ng coated antigen. The method, then:
as §1, §2

The target in assay [13] is T6, human BCMA-Fc/His (1-51) (human, UniProt Q02223 1-51).
T6 construct: also called recombinant human BCMA-Fc/His; recombinant human BCMA-His (Sino Biological Inc.); not shown: Fc region; C-terminal His tag
T6 sequence: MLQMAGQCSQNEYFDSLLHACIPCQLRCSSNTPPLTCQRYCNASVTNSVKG
The assay is described as follows: BLI (Octet), antigen on Ni-NTA biosensor, IgG in solution. The protocol: A 96-well black microplate was mounted on a Biosensor tray case, 200 μl of 1XKB was added to each of the 8 wells, and then 8 Ni-NTA biosensors (Fortebio) were inserted thereto for hydration for 10 minutes. For antigen fixation, 5 μg/ml of recombinant human BCMA-His (Sino Biological Inc.) was diluted using 1XKB. Experiments were performed with a threshold of 0.5 to 1.0 nm, and Octet Data Acquisition 9.0 software was activated to create an Octet program template. The first step was for Baseline 1, the second step was for loading, and the threshold was fixed to 0.5 to 1.0 nm. In the third step, which was for Baseline 2, association for 5 minutes and dissociation for 20 minutes were performed. A plate temperature was fixed to 30° C., and the prepared buffer solution was placed in order into a new 96-well black microplate according to the Octet program template. 200 μl of 1XKB used as Baseline 1 and recombinant human BCMA-Fc/His which is an antigen to be loaded were diluted to 5 μg/ml, and 200 μl of the dilution was added thereto. After adding 200 μl of 1XKB used as Baseline 2, 200 μl of the antibody to be reacted with the antigen was dispensed, and the instrument was operated. After completion of the experiment, an association constant (kon), a dissociation constant (kdis), and an equilibrium dissociation constant (KD) for each antibody were analyzed and calculated with Octet Analysis 9.0 software.

Assay [14] has as its target T7, human BCMA-Fc (R&D system, 193-BC-050) (human, UniProt Q02223 1-54, limits assumed).
T7 construct: Bought construct; not shown: Fc part
T7 sequence: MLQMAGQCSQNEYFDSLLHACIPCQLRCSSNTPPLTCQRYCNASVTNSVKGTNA
The assay is described as follows: competition ELISA on coated human BCMA-Fc; antibody titrated and mixed with 200 ng/ml BAFF, bound BAFF detected, absorbance 450 nm. The protocol:
Specifically, human BCMA-Fc (R&D system, 193-BC-050) was diluted using a PBS buffer, and then 100 ng of the dilution per well was coated on the ELISA plate. After the coating, the plate was emptied, and 100 μl of PBST containing 1% BSA was added to each well and incubated at 37° C. for 2 hours. The antibodies diluted at a concentration of 50 μg/ml to 0.00028 μg/ml were mixed with 10 ng/ml of APRIL protein (R&D, 5860-AP-010/CF) or 200 ng/ml of BAFF (R&D, 2149-BF-010/CF). An IgG1 antibody was used as a negative control, and a J6MO antibody was used as a comparative group.
Using anti-HA-HRP (Roche, 12013819001) or anti-His-HRP (Roche, 11965085001) as secondary antibodies, ELISA assay was performed as described in Example 1.4(1). As a comparative group, anti-BCMA monoclonal antibody J6MO (GSK) was used.

B1: anti-BCMA IgG antibody 5B5 (antibody, V domains shown)
VH: EVQLLESGGGLVQPGGSLRLSCAASGFTFSGHYWSWVRQAPGKGLEWVSTVSGSGGDTFYADSVKGRFTISRDNSKNTLYLQMNSLRAEDTAVYYCARGHSVMDVWGQGTLVTVSS
VL: EIVLTQSPGTLSLSPGERATLSCRASQGIDSYVAWYQQKPGQAPRLLIYDASLRATGIPDRFSGSGSGTDFTLTISRLEPEDFAVYYCQQYNSWPITFGQGTKLEIKR
notes: also called 5B5 antibody
Broadly, the EC50 (read off the curve) is the concentration needed to bring the measured effect to its halfway point. The Kd is the free concentration of one partner at which half of the binding sites on the other are occupied at equilibrium, for simple one-to-one binding. The term koff denotes a measure of how fast the partners let go of each other. The kon is the rate constant with which the complex forms. One may read the EC50 as the concentration giving half of the maximal effect. B1: the “EC50 (read off the curve)” value in [1] is about 0.02 µg/mL; in [2], about 0.01 µg/mL; in [4], about 0.01 µg/mL; in assay [6] it was about 0.1 µg/mL; in [8], about 0.01 µg/mL. Further, the MFI came to 20.9 in assay [3] and 37.4 in assay [7]. Besides, the Kd in assay [5] is 0.461 nM; in assay [13] it was 0.202 nM. The koff in assay [5] was found to be 0.00221 s⁻¹; in assay [13] it was 0.00025 s⁻¹. Also, the results for the kon in [5] and in [13] were 4.79e+06 M⁻¹ s⁻¹ and 1.24e+06 M⁻¹ s⁻¹, respectively. Also, the EC50 was found to be 63 nM in [9], 65 nM in assay [10], 82 nM in assay [11] and 110 nM in assay [12].

B2: anti-BCMA IgG antibody B58 (antibody, V domains shown)
VH: EVQLLESGGGLVQPGGSLRLSCAASGFTFSNYDMSWVRQAPGKGLEWVSWIYPSDSSIYYADSVKGRFTISRDNSKNTLYLQMNSLRAEDTAVYYCARGPFANKYRQFDYWGQGTLVTVSS
VL: QSVLTQPPSASGTPGQRVTISCSGSSSNIGSNSVSWYQQLPGTAPKLLIYADSKRPSGVPDRFSGSKSGTSASLAISGLRSEDEADYYCGSWDYSLSGYVFGGGTKLTVL
notes: also called B58 antibody
B2: the binding result in assay [1] and in assay [8] was “no binding (tested: about 30 µg/ml)” each time. The entries for the “EC50 (read off the curve)” value in assay [2] and in [6] were about 0.01 µg/mL and about 0.005 µg/mL, respectively. For the same molecule, the results for the MFI in assay [3] and in [7] were 23.6 and 80.7, respectively. Further, the “IC50 (read off the curve)” value in assay [14] was about 5 nM. Also, in assay [9], the EC50 came out at 79 nM. Besides, the Kd in [13] stood at 0.0273 nM. The molecule further showed a koff in assay [13] of 2e-05 s⁻¹. This molecule also yielded a kon in [13] of 735000 M⁻¹ s⁻¹.
